Measurements published in patent US20130136743A1 (LABORATOIRE FRANCAIS DU FRACTIONNEMENT ET DES …, published 2013).
Changes are numbered by the printed parent chain. Numbers in names are those of the source.

T1: Epitope peptide GGGGNLTQDRAQVEMQGSR
T1 peptide: GGGGNLTQDRAQVEMQGSR

T2: AMHRII receptor expressed on cells (cov434-AMHRII, Asc 1, META 2815) (human, UniProt Q16671 18-573)
T2 construct: whole, on cells; The cell line is named in the assay or readout field of each row; also called AMHRII antigen
T2 sequence (looked up): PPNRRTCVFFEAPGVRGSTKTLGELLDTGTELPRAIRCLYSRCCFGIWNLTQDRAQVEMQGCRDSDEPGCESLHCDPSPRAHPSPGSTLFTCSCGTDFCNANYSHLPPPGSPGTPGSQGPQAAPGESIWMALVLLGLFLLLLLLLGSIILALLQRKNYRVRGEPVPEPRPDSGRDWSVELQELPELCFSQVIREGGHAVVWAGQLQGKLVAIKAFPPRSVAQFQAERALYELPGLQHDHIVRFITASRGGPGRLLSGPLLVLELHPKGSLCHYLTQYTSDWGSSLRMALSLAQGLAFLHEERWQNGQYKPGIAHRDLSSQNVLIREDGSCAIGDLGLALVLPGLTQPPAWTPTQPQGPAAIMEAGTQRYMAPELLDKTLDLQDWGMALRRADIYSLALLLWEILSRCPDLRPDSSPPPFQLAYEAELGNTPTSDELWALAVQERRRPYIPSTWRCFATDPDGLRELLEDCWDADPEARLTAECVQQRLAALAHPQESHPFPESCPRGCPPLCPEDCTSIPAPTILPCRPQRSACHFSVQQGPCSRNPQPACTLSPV

B1: murine 12G4 monoclonal antibody (antibody, V domains shown)
VH: QVQLQQSGPELVKPGASVRMSCKASGYTFTSYHIHWVKQRPGQGLEWIGWIYPGDDSTKYNEKFKGKTTLTADKSSSTAYMLLSSLTSEDSAIYFCTRGDRFAYWGQGTLVTVSA
VL: QIVLTQSPAIMSASLGEGITLTCSASSSVRYIHWYQQKSGTSPKLLIYSTSNLASGVPSRFSGSGSGTFHSLTISSVEAEDAADYYCLQWSSYPWTFGGGTKLEIK
notes: also called mLFB112; original murine 12G4 antibody
B2: huVH-VL, humanized antibody huLFB112 expressed as scFv on phage (scFv, part only; not given: scFv linker and phage partner, V domains shown, not shown: another chain or arm of the molecule; large carriers; small tags and cut ends)
VH: QVQLVQSGAEVKKPGASVKVSCKASGYTFTSYHIHWVRQAPGQRLEWMGWIYPGDDSTKYSQKFQGRVTITRDTSASTAYMELSSLRSEDTAVYYCTRGDRFAYWGQGTLVTVSS
VL: DIQMTQSPSTLSASVGDRVTITCRASSSVRYIAWYQQKPGKAPKLLIYSTSSLESGVPSRFSGSGSGTEFTLTISSLQPDDFATYYCLQWSSYPWTFGGGTKVEIK
B3: mutated humanized 12G4 antibody 3C-23K produced in YB2/0 (antibody, human IgG1, kappa, V domains shown)
VH: B2 VH with Q3R
VL: DIQMTQSPSTLSASVGDRVTITCRASSSVRYIAWYQQKPGKAPKLLTYPTSSLKSGVPSRFSGSGSGTEFTLTISSLQPDDFATYYCLQWSSYPWTFGGGTKVEIKR
notes: Chains without leader; also called 3C_23K YB2/0; 3C-23K-YB2/0
B4: mutated humanized 12G4 antibody 6B-78 produced in YB2/0 (antibody, human IgG1, kappa, V domains shown)
VH: B2 VH
VL: B3 VL with T47I, P49S
notes: Chains without leader; Mutation VL-E184K; also called 6B_78 YB2/0; R901 6B78
B5: mutated humanized 12G4 antibody 3C-23 produced in YB2/0 (antibody, human IgG1, kappa, V domains shown)
VH: B2 VH with Q3R
VL: B3 VL with K54E
notes: Chains without leader; Mutations VH-Q3R, VL-I177T/S179P; also called 3C_23 YB2/0; R901 3C23

What was measured:
[1] = target: T1, Epitope peptide GGGGNLTQDRAQVEMQGSR; experiment: method not stated; Example 2, heading names cov434-AMHR-II cells and the epitope peptide
[2] = target: T2, AMHRII receptor expressed on cells …; experiment: saturation binding of 125I-labelled antibody to cov434-AMHRII cells, Scatchard analysis
Description: Briefly, KD was determined by the saturation method, by adding increasing doses of radiolabelled antibody to a constant number of cov434-AMHRII cells. […] For each antibody, fourfold dilutions were carried out in PBS/BSA 0.5% from the solutions of labelled and unlabelled antibody (84.4 μg/ml). The nonspecific fixation was evaluated by incubating the cells in the presence of a 100 times molar excess of unlabelled antibody.
After incubation, the samples were frozen in liquid nitrogen and then analysed in a gamma counter. The specific fixation was determined by subtracting the fixation obtained in the presence of an excess of unlabelled antibody.

[3] = target: T3, AMHR-II/Fc fusion protein (human, UniProt Q16671 18-149, limits assumed); experiment: direct phage ELISA, target coated at 500 ng/well; 3.00E+09 phages per well as printed
T3 construct: also called AMHR-II recombinant receptor expressed in the form of fusion protein with a region Fc; recombinant target; not shown: Fc region

[4] = target: T3, AMHR-II/Fc fusion protein; experiment: direct phage ELISA, target coated at 500 ng/well; 3.00E+09 phages per well as printed (third row)
[5] = target: T3, AMHR-II/Fc fusion protein; experiment: direct phage ELISA, target coated at 500 ng/well; 3.00E+10 phages per well as printed (second row)
[6] = target: T3, AMHR-II/Fc fusion protein; experiment: direct phage ELISA, target coated at 500 ng/well; 3.00E+10 phages per well as printed
[7] = target: T3, AMHR-II/Fc fusion protein; experiment: direct phage ELISA, target coated at 500 ng/well; 3.00E+09 phages per well as printed (second row)
[8] = target: T2, AMHRII receptor expressed on cells …; experiment: cell-based or functional assay
[9] = target: T2, AMHRII receptor expressed on cells …; experiment: cell-based or functional assay; remark: listed apart in the source
[10] = target: T3, AMHR-II/Fc fusion protein; experiment: SPR, BIAcore X100; ratio against the chimeric 12G4
Description: (§1) The affinity of the antibodies for their antigen, AMHR-II, is determined by the SPR (Surface Plasmon Resonance) technique on BIACore X100 (BIACore, GE Healthcare). The AMHR-II recombinant receptor, expressed in the form of fusion protein with a region Fc, is immobilized by covalent coupling between its amine functions and the carboxyl groups of dextran activated in succinimide esters, present on the surface of the type CM5 sensor chip. The COOH groups of the sensor chip are activated for 7 minutes with EDC/NHS mixture (0.1 M of N-hydroxysuccinimide and 0.1 M of 3-(N,N-dimethylamino)propyl-N-ethylcarbodiimide) at a flow of 10 μl/min then the AMHR-II/Fc fusion protein, diluted to 5 μg/ml in 10 mM sodium acetate buffer, pH 4.0, is injected at […] on track 2 of the sensor chip so as to reach 300 RU. The ester groups that have not reacted with the amines of the fusion protein are deactivated by injection of a solution of ethanolamine-HCl 1M, pH 8.5 for 7 min at a flow of 10 μl:min. Track 1, serving as negative control, was activated and deactivated like track 2.
(§2) All the measurements are carried out at 25° C. The antibodies to be analysed are diluted in HBS-EP running buffer (BIACore, GE Healthcare) at concentrations from 6.25 to 3333 nM and injected on the sensor chip for 2 min at a flow of 30 μl/min. The dissociation step is monitored for 10 min and then the surface is regenerated by injection of 10 mM glycine buffer, pH 1.5 for 30 s at 10 μl/min.
(§3) The sensorgrams obtained are analysed using the 1:2 kinetic model of the BIAevaluation 3.1 software.

[11] = target: T2, AMHRII receptor expressed on cells …; experiment: cell-based or functional assay; remark: listed apart in the source
[12] = target: T3, AMHR-II/Fc fusion protein; experiment: SPR, BIAcore X100; AMHR-II/Fc immobilised on CM5 chip, antibody injected; 25 C
Description: as §1, §2, §3

| Binder | Kd [2] [nM] | EC50 (ng/ml), ADCC on ASC1 cells [8] [ng/mL] | Emax (% of lysis), ADCC on ASC1 cells [8] | % of lysis of ASC1 cells (ADCC with NK cells, LDH release) at 0.001 ng/ml antibody [9] [%] | % of lysis of ASC1 cells (ADCC with NK cells, LDH release) at 0.005 ng/ml antibody [9] [%] | % of lysis of ASC1 cells (ADCC with NK cells, LDH release) at 0.05 ng/ml antibody [9] [%] | % of lysis of ASC1 cells (ADCC with NK cells, LDH release) at 0.5 ng/ml antibody [9] [%] | % of lysis of ASC1 cells (ADCC with NK cells, LDH release) at 5 ng/ml antibody [9] [%] | % of lysis of ASC1 cells (ADCC with NK cells, LDH release) at 50 ng/ml antibody [9] [%] | % of lysis of ASC1 cells (ADCC with NK cells, LDH release) at 500 ng/ml antibody [9] [%] | % of lysis of ASC1 cells (ADCC with NK cells, LDH release) at 5000 ng/ml antibody [9] [%] | KD chimeric/KD mutated [10] | 50% relative, ADCC on the COV434-AMHRII line (chimeric antibody = 1) [11] | Kd [12] [nM] | koff [12] [s⁻¹] | kon [12] [M⁻¹ s⁻¹] | other results |
| --- | --- | --- | --- | --- | --- | --- | --- | --- | --- | --- | --- | --- | --- | --- | --- | --- | --- |
| B1 | 15.4 | – | – | – | – | – | – | – | – | – | – | – | – | – | – | – | Kd [1]: ~100 nM; koff [1]: 0.00147 s⁻¹ |
| B2 | – | – | – | – | – | – | – | – | – | – | – | – | – | – | – | – | OD 450 nm, +covering [3]: 0.395 OD; OD 450 nm, Diff (specific binding) [3]: 0.323 OD; OD 450 nm, +covering [4]: 0.135 OD; OD 450 nm, Diff (specific binding) [4]: 0.086 OD; OD 450 nm, +covering [5]: 0.689 OD; OD 450 nm, Diff (specific binding) [5]: 0.593 OD; OD 450 nm, +covering [6]: 1.25 OD; OD 450 nm, Diff (specific binding) [6]: 1.1 OD; OD 450 nm, +covering [7]: 0.226 OD; OD 450 nm, Diff (specific binding) [7]: 0.17 OD |
| B3 | 5.3 | 1.7 | 79 % of lysis | 0 | 8 | 10 | 26 | 51 | 67 | 79 | 75 | 10 | 0.84 | 21 | 0.00086 | 40000 | fold affinity against the original murine 12G4 antibody [2]: ~3 fold; EC50, ADCC on Asc 1 cells [11]: ~2.24 ng/mL; EC50, ADCC on META 2815 cells [11]: 30.5 ng/mL; fold cytotoxic activity on Asc 1 cells against 3C-23K-CHO [11]: ~40 fold; fold cytotoxic activity on META 2815 cells against 3C-23K-CHO [11]: ~146 fold |
| B4 | 6.68 | 5.38 | 51.9 % of lysis | 0 | 14 | 5 | 3 | 28 | 42 | 48 | 53 | 2.6 | 36.9 | 82 | 0.0013 | 16000 | – |
| B5 | 7.33 | 6.3 | 65.5 % of lysis | 0 | 8 | 9 | 13 | 35 | 46 | 52 | 63 | 2.3 | 6.41 | 92 | 0.0033 | 36000 | – |
